# ± gives the standard deviation of the averaged measurements.
# System: ATP
# Assay: switch fluorescence ratio, 500 uM ATP over buffer (Cy3 cluster intensity, sum of 5 cycles each) (fold (ratio)); higher = stronger signal-on switching upon ATP binding; sequences stand for … in TCGTCGGCAGCGTCAGATGTGTATAAGAGACAGTTTTTTTTTTTTTTTTTTTTTTTTT…TC
# Conditions: aptamer strand: ATP DNA aptamer (quencher-CACCTGGGGGAGTATTGCGGAGGAAGG + anchor), 100 nM annealed; ATP concentration: 500 uM
# Summary of the method: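 Five buffer/ATP imaging cycles were run on Cy3-labelled switching-strand clusters on a modified Illumina MiSeq flow-cell, with NaOH stripping and re-annealing between cycles. In each cycle, clusters annealed to 100 nM quencher-labelled ATP aptamer were imaged in selection buffer, then after 15 min with 500 uM ATP at 22 °C. Per cluster, the fluorescence ratio is summed target-cycle over summed buffer-cycle Cy3 intensity, averaged per switch-domain sequence. Only clusters within 100-1000 RFU were kept.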
# 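Further: ATP exposure 15 min at 22 °C before imaging.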
row,Sequence,switch fluorescence ratio
1,AGTTAGGAGT,0.9895 ± 0.0087
2,AGTTAGTGAA,0.99 ± 0.022
3,AGTTAGTTTG,0.961 ± 0.022
4,AGTTATACAC,1.014 ± 0.0099
5,AGTTATATTG,0.997 ± 0.07
6,AGTTATCGAC,1.01 ± 0.021
7,AGTTATCTTA,1.02 ± 0.011
8,AGTTATGAGT,1.01 ± 0.054
9,AGTTATGGGG,1 ± 0.032
10,AGTTATTTCG,0.993 ± 0.018
11,AGTTCAAGCT,1.02 ± 0.007
12,AGTTCAGGGC,1.003 ± 0.004
13,AGTTCCAAAA,1.07 ± 0.1
14,AGTTCCATTT,0.97 ± 0.028
15,AGTTCGCTAA,1.012 ± 0.003
16,AGTTCGGCTA,0.998 ± 0.036
17,AGTTCGGGAG,0.99 ± 0.013
18,AGTTCGGTGG,0.962 ± 0.0022
19,AGTTCGTAAA,1.02 ± 0.029
20,AGTTGAGAGA,1.01 ± 0.018
21,AGTTGAGTTT,0.992 ± 0.026
22,AGTTGCCAGC,0.994 ± 0.01
23,AGTTGCTTCG,0.975 ± 0.026
24,AGTTGGACGC,1.07 ± 0.021
25,AGTTGGGGCG,1.01 ± 0.039

row,Sequence,switch fluorescence ratio
1,AGTTGGGGGC,1 ± 0.079
2,AGTTGGGTTG,1 ± 0.023
3,AGTTGGTCCT,1.01 ± 0.017
4,AGTTGTACTA,0.9633 ± 0.0046
5,AGTTGTAGTT,0.972 ± 0.041
6,AGTTGTGTCG,0.955 ± 0.02
7,AGTTTAAGTG,1.01 ± 0.013
8,AGTTTAATTA,0.971 ± 0.051
9,AGTTTATAAT,0.982 ± 0.023
10,AGTTTATCAT,0.9996 ± 0.0089
11,AGTTTATTAC,1.47 ± 0.68
12,AGTTTCTACG,0.994 ± 0.015
13,AGTTTCTGTG,0.968 ± 0.059
14,AGTTTGAAAG,1.01 ± 0.017
15,AGTTTGCTCG,0.971 ± 0.093
16,AGTTTGGCAC,1.05 ± 0.057
17,AGTTTGGCAT,0.9958 ± 0.0071
18,AGTTTGGTTC,0.9876 ± 0.0078
19,AGTTTGTCTG,0.9665 ± 0.007
20,AGTTTTAGCT,0.984 ± 0.029
21,AGTTTTGAAA,0.9909 ± 0.0021
22,AGTTTTGCCT,0.981 ± 0.032
23,AGTTTTGGCA,1.03 ± 0.015
24,AGTTTTGTGC,1.005 ± 0.0017
25,AGTTTTGTTT,1.01 ± 0.02

row,Sequence,switch fluorescence ratio
1,AGTTTTTAGA,1.03 ± 0.033
2,AGTTTTTAGC,1.01 ± 0.047
3,AGTTTTTAGG,0.99 ± 0.024
4,AGTTTTTGGC,0.999 ± 0.021
5,AGTTTTTTAG,0.98 ± 0.015
6,ATAAAAGTCT,1.03 ± 0.032
7,ATAAACTAGA,1.01 ± 0.019
8,ATAAAGACGT,1.02 ± 0.037
9,ATAAAGAGGC,0.978 ± 0.066
10,ATAAAGTGGA,0.984 ± 0.044
11,ATAAAGTTGG,0.991 ± 0.0075
12,ATAAATGCGG,1.02 ± 0.041
13,ATAAATGTCA,1.01 ± 0.026
14,ATAAATTAGT,0.998 ± 0.018
15,ATAAATTTGT,0.967 ± 0.019
16,ATAACAGGTA,1.009 ± 0.005
17,ATAACATTAG,0.9984 ± 0.0069
18,ATAACGGGAT,1.26 ± 0.42
19,ATAACTGTAT,1.122 ± 0.0049
20,ATAACTTGGG,0.994 ± 0.041
21,ATAAGAAATA,0.996 ± 0.027
22,ATAAGAGGGT,0.976 ± 0.049
23,ATAAGATTGC,0.991 ± 0.042
24,ATAAGCCCGT,0.976 ± 0.014
25,ATAAGCGTCG,1.02 ± 0.013

row,Sequence,switch fluorescence ratio
1,ATAAGCTTGC,1.128 ± 0.0064
2,ATAAGGAAGT,1.02 ± 0.028
3,ATAAGGCCCG,1.04 ± 0.078
4,ATAAGGCGGG,0.971 ± 0.031
5,ATAAGGGAGG,0.979 ± 0.022
6,ATAAGGGCTA,0.99 ± 0.031
7,ATAAGGGGTA,0.98 ± 0.019
8,ATAAGGGTTT,0.9905 ± 0.0095
9,ATAAGGTACG,1.05 ± 0.077
10,ATAAGGTTGG,0.988 ± 0.029
11,ATAAGTATGT,1 ± 0.018
12,ATAAGTGAAA,1.07 ± 0.15
13,ATAAGTGAAT,1.01 ± 0.013
14,ATAAGTGTTG,0.979 ± 0.017
15,ATAAGTTTTT,1 ± 0.023
16,ATAATAGGGC,1 ± 0.015
17,ATAATCGGTG,0.981 ± 0.041
18,ATAATGGGCG,0.995 ± 0.058
19,ATAATGGGGA,1 ± 0.018
20,ATAATGGGGG,0.977 ± 0.027
21,ATAATGGTTT,0.987 ± 0.056
22,ATAATGTCGA,1.02 ± 0.026
23,ATAATTGAAG,0.99 ± 0.027
24,ATAATTGGTG,1.03 ± 0.018
25,ATAATTTCGG,1.01 ± 0.026

# Source: the supplement of paper PMC10126150
